# In patent US20160053025A1 (SAMSUNG ELECTRONICS, published 2016):
# T1: Ang2 RBD Q418A, FLAG-tagged (human, UniProt O15123 281-496, limits assumed)
# T1 chain: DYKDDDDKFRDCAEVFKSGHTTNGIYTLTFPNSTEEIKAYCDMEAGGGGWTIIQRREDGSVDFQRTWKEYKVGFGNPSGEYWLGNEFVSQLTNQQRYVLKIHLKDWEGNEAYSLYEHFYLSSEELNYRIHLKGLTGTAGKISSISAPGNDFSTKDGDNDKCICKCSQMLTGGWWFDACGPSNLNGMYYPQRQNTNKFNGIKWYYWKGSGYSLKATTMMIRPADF
# T2: Ang2 RBD N467A, FLAG-tagged (human, UniProt O15123 281-496, limits assumed)
# T2 chain: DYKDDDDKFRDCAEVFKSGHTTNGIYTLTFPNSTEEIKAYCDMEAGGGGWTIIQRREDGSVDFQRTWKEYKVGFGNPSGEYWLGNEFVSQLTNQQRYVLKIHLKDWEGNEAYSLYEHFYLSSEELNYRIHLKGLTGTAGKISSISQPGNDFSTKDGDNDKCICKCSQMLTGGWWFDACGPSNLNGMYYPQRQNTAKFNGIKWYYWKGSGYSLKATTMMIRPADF
# T3: Ang2 RBD S417A, FLAG-tagged (human, UniProt O15123 281-496, limits assumed)
# T3 chain: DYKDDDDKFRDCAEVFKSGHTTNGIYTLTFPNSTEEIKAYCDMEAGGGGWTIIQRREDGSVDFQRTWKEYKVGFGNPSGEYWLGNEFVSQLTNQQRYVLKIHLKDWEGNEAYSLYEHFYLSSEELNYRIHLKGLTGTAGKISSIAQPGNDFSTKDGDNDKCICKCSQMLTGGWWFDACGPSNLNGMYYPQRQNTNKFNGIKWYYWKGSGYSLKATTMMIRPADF
# Assays:
# [1] = target: T1, Ang2 RBD Q418A, FLAG-tagged; experiment: ELISA, antibody coated, FLAG-tagged mutant Ang2 RBD detected with anti-FLAG-HRP
# Experimental: (§1) To verify the epitope (or specific binding site) of the anti-Ang2 antibody prepared in Reference Example 2.3, an ELISA was performed using a recombinant protein where a receptor binding domain (RBD) of Ang2 protein in the form of being tagged with Flag was mutated by artificial means.
# (§2) Each well of a 96-well MaxiSorp™ flat-bottom plate (Nunc) was coated with 50 ul (microliter) of 1000 nM antibody. Then, the plate was washed five times with 0.05% (v/v) Tween-20-containing PBS (PBST) and blocked with 1% (v/v) BSA-containing PBS at a room temperature for 2 hours. 250 ng of each mutant Ang2 protein obtained by substituting S417, Q418, P419, N421, 1434, D448, A449, P452, Y460, N467, K468, or F469 residue of Ang2 protein tagged with a FLAG sequence ([…], Sigma) at its N-terminal with alanine was added to each well of the plate, which was then allowed to react at a room temperature for 2 hours.
# (§3) Finally, 50 ul of TMB substrates (Cell signaling) was added to each well of the plate to induce color development at a room temperature for 3 min. and the reaction was ceased by the addition of 50 ul of Stop solution (Cell signaling) and then, OD450 values were measured on a plate reader (Molecular Devices). By comparing binding affinities with mutated Ang2 to those of unmutated Ang2, each epitope of Ang2 antibodies was identified. The obtained measurement results of the binding affinities (%) with mutant Ang2 against the binding affinity with the native Ang2 are shown in the following Table 13.
# [2] = target: T2, Ang2 RBD N467A, FLAG-tagged; experiment: as above
# Experimental: as §1, §2, §3
# [3] = target: T3, Ang2 RBD S417A, FLAG-tagged; experiment: as above
# Experimental: as §1, §2, §3
# BSA = target: T4, BSA (Bos taurus, UniProt P02769); experiment: Complex ELISA: plate coated with BSA, 10D6 2 ug/ml with or without FLAG-Ang2 0.25 ug/ml, anti-mouse IgG-HRP, OD450
# T4 construct: commercial preparation; also called Bovine serum albumin; Sigma
# Experimental: A 96-well MaxiSorp™ flat-bottom plate (Nunc) was coated with 4 μg/ml of Tie2-Fc (R&D systems) or BSA (Sigma). Then, the plate was washed five times with 0.05% (v/v) Tween-20-containing PBS (Phosphate Buffer Saline) and blocked with 1% (v/v) BSA (Bovine serum albumin; Sigma)-containing PBS at a room temperature for 2 hours. 0.25 μg/ml of Ang2 and 2 μg/ml of 10D6 antibody were added to each well of the plate, which was allowed to react at a room temperature for 2 hours and then washed five times with PBST. After that, an anti-mouse IgG antibody (Sigma) conjugated with HRP diluted in 1% (v/v) BSA-containing PBS at a ratio of 1:5,000 (v/v) was added in an amount of 100 ul to each well to react at a room temperature for 1 hour and then, the plate was washed five times with PBST. Lastly, 100 ul (microliter) of TMB substrate (Cell Signaling) was added to each well of the plate to induce color development for 3 min. and then, the reaction was ceased by the addition of 100 ul of Stop solution (Cell Signaling) and OD450 values were measured on a plate reader (Molecular Devices).
# T4 sequence (P02769 25-607 limits assumed): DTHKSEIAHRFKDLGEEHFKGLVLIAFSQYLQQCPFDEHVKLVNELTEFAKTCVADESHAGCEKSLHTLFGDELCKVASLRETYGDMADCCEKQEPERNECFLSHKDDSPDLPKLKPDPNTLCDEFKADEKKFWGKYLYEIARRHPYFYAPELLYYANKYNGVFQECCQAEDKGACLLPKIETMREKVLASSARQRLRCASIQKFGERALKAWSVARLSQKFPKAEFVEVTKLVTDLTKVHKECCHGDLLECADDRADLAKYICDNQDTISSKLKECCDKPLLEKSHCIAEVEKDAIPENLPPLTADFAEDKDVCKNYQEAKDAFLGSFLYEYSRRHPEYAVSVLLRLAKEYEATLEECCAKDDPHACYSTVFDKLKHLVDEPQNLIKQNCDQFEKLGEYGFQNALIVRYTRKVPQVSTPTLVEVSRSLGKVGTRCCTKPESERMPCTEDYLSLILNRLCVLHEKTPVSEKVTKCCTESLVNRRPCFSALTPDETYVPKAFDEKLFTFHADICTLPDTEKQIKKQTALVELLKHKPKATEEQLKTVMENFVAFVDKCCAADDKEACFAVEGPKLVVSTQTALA
binder,measurement,setting,value
"SAIT-ANG2-AB-m10D6 (antibody, V domains shown, Mouse monoclonal antibody purified from a hybridoma (KCLRF-BP-00295); it is not applied here; also called mouse antibody 10D6; 10D6 antibody) VH: DVQLQESGPDLVKPSQSLSLTCTVTGYSITSDYAWNWIRQFPGNKLEWMGYINYSGNTDYNPSLKSRSSITRDTSKNQFFLQLNSVTTGDTATYYCARGNFEGAMDYWGQGTSVTVSS VL: SIVMTQTPKFLLVSAGDRVTITCKASQSVSNDVAWYQQKPGQSPKLLIYYASNRYPGVPDRFTGSGYGTDFTFTISTVQAEDLAVYFCQQDYSSPWTFGGGTKLEIK",binding affinity (%) with mutant Ang2 against the binding affinity with the native Ang2,[1],38.9%
same,binding affinity (%) with mutant Ang2 against the binding affinity with the native Ang2,[2],107%
same,binding affinity (%) with mutant Ang2 against the binding affinity with the native Ang2,[3],101%
same,binding result,BSA,no binding (tested: 2 ug/ml)
